Measured values published in article PMC9695261.

Target: Kansetin (human) (UniProt Q9BYF1)
Test: SPR

Row | Substance | Kd
1 | His-tagged RBD of the SARS-CoV-2 Omicron BA.5 strain (domain or fragment) | 33.1 nM
2 | Spike S1+S2 trimer of the SARS-CoV-2 Omicron BA.5 strain (natural protein) | 1.22 nM
